A protein production outcome set (Wang et al. 2014)

Assay: label from the status in PepcDB records
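Further: failed if final PepcDB status was selected cloned or expressed and not failed if soluble or beyond.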

Row | Sequence | protein production
1 | MTDNTAVRRRYEKSFTERPGFTEDEIEEIREAFNLLDTDGTGTIDPKEIKCAMQSLGLDAKNPMIFRMIADLEKDGYSSIDFEEFMEVITSKLGNKDTREGIQRIFNLFDDDKTGSISLKNLKRVAKELGETLTDEELRDMIDRADSKGEGEISFEDFYTIMTKKSFL | failed
2 | MTDQLQHIRKPPRTGKAARSGTQDEIVYAHIFDAILEQRLAPGTKLSEEALGEIFGVSRTIIRRALSRLAHEQVVLLRPNRGAVVASPSIDEARQILFARRTVERAITELATDNATAERLAEL | failed
3 | MTDQRWLIDKSALVRLTDSPDMEIWSNRIERGLVHITGVTRLEVGFSAECGEIARREFREPPLSAMPVEYLTPRIEDRALEVQTLLADRGHHRGPSIPDLLIAATAELSGLTVLHVDKDFDAIAALTGQKTERLTHRPPSA | not failed
4 | MTDQTYCDRLVQDTPFLTGHGRLSEQQVDRIILQLNRYYPQILTNKEAEKFRNPKASLRVRLCDLLSHLQRSGERDCQEFYRALYIHAQPLHSRLPSRHALQNSDCTELDSGSQSGELSNRGPMSFLAGLGLAVGLALLLYCYPPDPKGLPGTRRVLGFSPVIIDRHVSRYLLAFLADDLGGL | failed
5 | MTDQVFGKVSKVVCVGAGYVGGPTCAMIAHKCPHITVTVVDMNTAKIAEWNSDKLPIYEPGLDEIVFAARGRNLFFSSDIPKAIAEADLIFISVNTPTKMYGRGKGMAPDLKYVESVSRTIAQYAGGPKIVVEKSTVPVKAAESIGCILREAQKNNENLKFQVLSNPEFLAEGTAMKDLANPDRVLIGGESSPEGLQAVAELVRIYENWVPRNRIITTNTWSSELSKLVANAFLAQRISSINSISAVCEATGAEISEVAHAVGYDTRIGSKFLQASVGFGGSCFQKDVLSLVYLCESLNLPQVADYWQGVININNWQRRRFADKIIAELFNTVTDKKIAIFGFAFKKNTGDTRESSAIHVIKHLMEEHAKLSVYDPKVQKSQMLNDLASVTSAQDVERLITVESDPYAAARGAHAIVVLTEWDEFVELNYSQIHNDMQHPAAIFDGRLILDQKALREIGFRTFAIGTSPDQAYNLFGTAGY | not failed
6 | MTDTASKYAVKLKTNFEDPKWVNRHKFMFNFLDINGNGKITLDEIVSKASDDICAKLGATPAQTQRHQEAVEAFFKKIGLDYGKEVEFPAFVNGWKELAKHDLKLWSQNKKSLIRNWGEAVFDIFDKDGSGSISLDEWKTYGGISGICPSDEDAEKTFKHCDLDNSGKLDVDEMTRQHLGFWYTLDPNADGLYGNFVP | not failed
7 | MTDWQQALDRHVGVGVRTTRDLIRLIQPEDWDKRPISGKRSVYEVAVHLAVLLEADLRIATGATADEMAQFYAVPVLPEQLVDRLDQSWQYYQDRLMADFSTETTYWGVTDSTTGWLLEAAVHLYHHRSQLLDYLNLLGYDIKLDLFE | not failed
8 | MTDYTKLQQVRQWTQDNHVDVTYISNFHTISYLTGFESNPYERTLALFVFADAEPFLFAPALEVEAIKEMGWPYKVFGYLDHENPYALIADHIHAQLTDPKVWALETGNLTLDRFTALKQQFPAAHFDKDLSPYIQQLRLVKTADELEKLNIAGKWADFAFEQGFAAVKAGRTEQQIAAELQYALMKKGIMEMSFDTLVQAGEHAANPHGATNETQVKPNELVLFDLGVMYEGYASDASRTIAYGQPSAKQKEIFDVCLEANLTAQAAIKPGMAAEDVDKIARDIITKAGYGEYFIHRLGHGIGQTDHEFPSIMAGNHMPLVEGMCFSVEPGIYIPGVAGVRIEDCGVVTKEGFKPFTHTPKELKVLDL | failed
9 | MTEEKKRGFRIPSSYTVLFIIIAIMAVLTWFIPAGAYETAKGGGVISGTYKTVASNPQGFFDILMAPVRGMLGVEGTDGAIQVSFFILMVGGFLGVVNKTGALDTGIASVVRKNKGREKMLIAILIPLFALGGTTYGMGEETMAFYPLLIPVMIAVGFDSIVAVAIILIGSQIGCLASTINPFATGVAADAAGVSIADGMIWRVIQWVILVGMSIWFVYNYASKIEEDPSKSLVADKEEEHKELFQLQNSGEDLNKRQRNVLTIFTLTFVIMILSLIPWEDFGIKFFTNINTWLTTMPILGGVIGKTMGAFGTWYFPEITMLFIMMGVLVAIVYRMSEEDFFSSFLTGAGEFLGVAMICAIARGIQVIMNGGMITATILHLGETSLSGLSSQVFVILAYIFYLPMSFLIPSTSGLAGATMGIMAPLGQFSNVPAHLVITAFQSASGILNMISPTSAIVMGALALGRVDLGTWWKFIGKFIVMVMLVSVLLLVVATFF | not failed
10 | MTEFPKILMVLGAVIFGIGLFMQVIGRLPGDIFVKKGNVTFFFPVVTCIVISIILSVVFSFFGRMK | failed
11 | MTEHCGAIKYFKSNFRRKRCLDFVCLTNLMFGLGSTPHGQVERADENNTLDLNNLPDDPSRDIFPFFEEGGFREKQTKDGKEYECRFCSLKFFKSQALGGHMNRHRQERETESLNKARELVLRNDSFPPHQGPPSFSYHQGDVHIGDLTQFKPMMYPPRHFSLPGSSSILQLQPPYLYPPLSSPFPQHNTNIGNNGTRHQTLTNSVCGGRALPDSSYTFIGAPVANGSRVAPHLPPHHGL | failed
12 | MTEHSSDYYQRLVDESALEEFLTREIGPAETFDVARHEQGHSNETLFVTWGDRELVVRRPPPGQTAETAHDVLREYRVIDALQDTAVPVPPTVTACDDQTIIGSDFYVMARVEGTVIRDDEPARFGSDDARAAVGTELVDTLAAIHEVDPTAVGLSDLGRADGYAKRQVARWGKQLAWAFERTAESRTIPELERVGSWLQDECPDDHPKTLVHGDYKLDNVMFGPGDDPELAAVFDWEMATLGDPRADLGWLLSYWRDAKDPEPEIPDLAMEFIEAPGYLTRTDLVDRWEAQTGLTFEHERFYRTLAVYKLAALGEMFYRRYLEGNADDPFYPLMEDRVPALANRAVRIIEGDEPL | failed
13 | MTEKEKMLAEKWYDANFDQYLINERARAKDICFELNHTRPSATNKRKELIDQLFQTTTDNVSISIPFDTDYGWNVKLGKNVYVNTNCYFMDGGQITIGDNVFIGPNCGFYTATHPLNFHHRNEGFEKAGPIHIGSNTWFGGHVAVLPGVTIGEGSVIGAGSVVTKDIPPHSLAVGNPCKVVRKIDNDLPSETLNDETIK | not failed
14 | MTEMHRLLQRQLKKFGFTADGLPQNLESWTQFIAHINKTYYENDQDRYLLERSIDISSKEMRDINAKLEYAQDIAQIGYWHYDADTDTATWSKGLFKILGLPPSNVALNYSSFLDLVHPNDKAGLKNVVEKALKEKEDYDYELRVRNGDNDYKWYRTIARANPHKNEISGVLMDISKRKIIEEQVHELNNKLVSTARLAGMSEVATSILHNVGNILNSVNVSAIILKKNISKIHYKKLSAIKTMLDENINQLSEYLLQNPKGKLILPYLDALSKTLHEEYEENMKESNSLETNINHIKEIIAMQQSLSGLSNLTEKISIHDVILNAVKSVILDKHQIDVRIEIEPDINEFITDKSKLFQILTNLLANAKDSVLLHEANDSRKVVISIGRTEKNHIMIKINDNGIGIQKDNLDRIFSFGFTTKKNGHGFGLHCSAIYARDLGGTLYAESNGNGKGAQFVLDLPINPKTLSTR | failed
15 | MTERKVSWLELFFDLIFVTAVASTTHLLLSVDNHPDKTAAYFGEYLLMVTPMFWAWVGQTMFFNRFGEKIKWPELYMLSQMFFLILMTASFDLTFSNTYYTFLIGYLGIRFITVIQYFVISKQLTGNAQKVALLLGSVFLLGVLTTATSVFFEGFARYLVMYLGIAVDIILPLFLAKTLRKVPVDFPHLAERFGLFVIITFGESIVAITTILVGHTLDLYTICYTLLGFLIICTLWASYFYSFEKIVDHHKVTHGQFLIYGHFFIIVSVMLLAVNLHLLFEGHLQRDVLLLLLFSSVAVFFISKQFVFAAHKKAEVSFSFWKDALLLLLLVGLFFVNLYINLPLFVSFVSIWICALVDLGLQFGTSRSVRM | failed
16 | MTERLLVGVIVGSHGVRGLVRVKSFTQDEMALCDYGPLSDETGTRRFAVEVRNQAKGVVICQIPGVSDRTAADALKGTRLFLDRAALPADALEEDEYYHADLIGLPVDLVDGGRLGVVHSVHDFGAGDMLEVTLAQGRRSVLLPFTKAVVPLVDVKAGRLVADPPLGLLDDTRPPAGVEGEVEEDPGVGIDEDGDGKGGASLEHHHHHH | not failed
17 | MTESTGSTSQEQQVRGETMPDWEKRFRAPRVSLPDWAEDAPHRALFVSNATGTYELYAWDRTTGEQRQVTDRPNGTTDGVLSPDGEWIWWFDDTDGDEFGIWRRQRFTGGGTADGPDEPAADGLEPSYPAGLAIGRDGGTAVVGRSTDEDGSTVHVVRAGQEPVEIYRHRESAGVGDLSHDGSLIAVEHTEHGDAMHSALRVLRLDGSTVAELDDTKGGSVELGLEVLGFAPVDGDTRLLIGHQRRGRWEPLVWDVASGEETDLALELPGDVGAEWYPDGSALLVAHSFEARSELFRYDLASRELVRVPTPAGTVSGATARPDGSVEYLWSSAAEPSVVRSTSGGIVLDPPGMKSPGSVPVEDVWVEGPGGRVHALVQRPAGASGPLPTVFDIHGGPTWHDSDSFAAGPAAWLDHGYAVVRVNYRGSTGYGREWTDALKHRVGLIELEDIAAVREWAVSSGLADPDRLILTGGSWGGYLTLLGLGTQPDAWTIGIAAVPVADYVTAYHDEMEALKAMDRTLLGGTPEEVPERFEASSPLTYVDAVKAPVYISAGVNDPRCPIRQVENYVERLTARDAVHEVYRYDAGHGSLVVDERIKQVRLELEFAERHLGR | failed
18 | MTETRIKQLLGQMSLEEKVSILSGEDFWSVAAVERLGIGKLRVSDGPNGARGGGSLVGGVKSASFPVGIAIGSTWNVELVREIGAALADEVKSKGAHMLLAPTVNIHRSVTNGRNFECYSEDPILSAELAVSYITGLQEQGIGATIKHFVGNESEIERTTISSEVDERALREIYLIPFEWAVRKAHTWGIMSSYNRLNGTFTSEHDWLLGHVLRDEWHYDGIVMSDWFGSHSTAETVNAGLDLEMPGPTRDRGQKLVDAVNAGEVSLETLDRRVLAMLRLMERVGSLDDHRPHVEKAEDRPEHRALIRRAGAEAAVLLKNDGVLPLEGSGKIAVIGPNAKTAQIMGGGSAQLNAHYRISPWQGLVAALGEERLTYAKGCTNDRFEPLLRGVLDVDYFDNLTLSGEPVHRGTIEDAQTFWIGQVAEGKVDALHFSARVRGRFTPEASGEHNVGIYAAGFAKVYIDGKLVADAWTNWTKGRTFFEEGCDEVVGTITLEAGHAYDVTIEFCTKDFATLGLAAFACGIGHPLGDDAIAAAVEAARTAETALLFIGRNGEWDTEGSDLPAIVLPGRQNELVEAVAAVNPRTVVVLQSGGPVEMPWAGQVAAVVSAWYPGQEAGNAIADVLTGLAEPGGRLPQTFPVRWADNPAHSQDREVYPGLEGKVRYEESIFVGYRHYDKLGLTPLYPFGFGLGYTSFALSDLSVDASNFETEGTVSVTLNVTNTGDRVGSTVVQLYVSDTLSSAPRPSKELKAFAKVKLEAGASRGVTLSLDARAFAFFDAGSKSWLVEPGDFILRVGQSSADLPLTARITRTGAMHLPL | failed
19 | MTEYNIALVGFGGVNRALAQLIAERNQAWKKQLGFSLKIVGISDLFLGSIVASQGLDAGLLSKLPATKGALAQLPGGQVEALNEQVIKDSGADIIAEATFTNPVDGEPASTFCRWALEQGKHVVTTNKGPIALHSAELKALAQRNLAAFEYEGAVMSGTPVIRMAKQSLAGSGLLGFEGILNGTSNFVLTRMEAGLGFAEAVAEAQALGYAEADPSADVEGFDVRLKVVILANELLDAQLTVSDVSCRGISGLTVKDLEQARAEGARWKLIGSAQRLADGSLQASVEPRLLPLAHPLAGIGGAINAVSFNTELLGAVTVSGPGAGRIETAFALLSDIIHIHQSRLAR | failed
